B1: Chromodomain-helicase-DNA-binding protein 5, residues 338 to 390; numbered along this chain, Q8TDI0 (parent)
chain: YETDHQDYCEVCQQGGEIILCDTCPRAYHLVCLDPELEKAPEGKWSCPHCEKE
B2: SWI/SNF complex subunit SMARCC1, residues 620 to 663; numbered along this chain, Q92922 (parent)
chain: GREWTEQETLLLLEALEMYKDDWNKVSEHVGSRTQDECILHFLR

Variants of: B1
Assay: abundance fitness (aPCA) (normalised: wild type 0, dead -1); higher = more abundant; growth selection in yeast, the domain comes from the species named
Conditions: Homo sapiens

Abundance fitness: each site, then its substitutions
D4: P -0.049 | A 0.244 | Q 0.368 | C 0.128 | G 0.001 | F 0.04 | M 0.627 | N 0.106 | L 0.095 | E 0.081 | I 0.03 | K 0.073 | H -0.056
Y1: G 0.239 | D -0.839 | K 0.125 | N -0.336 | S -0.481 | R 0.063 | C 0.245 | W 0.122 | F -0.041 | V 0.159 | E 0.321
E2: K 0.529 | S 0.451 | A -0.071 | R 0.267 | W -0.092 | L 0.287 | I 0.814 | G 0.072 | F 0.018 | C 0.423 | N 0.405 | H 0.022 | T 0.488 | V -0.484 | P -0.175 | M 0.789
T3: S 0.077 | M 0.567 | F 0.275 | Q 0.05 | K 0.264 | H -0.407 | C -0.267 | E 0.268 | W 0.236 | N -0.37 | Y 0.171 | V 0.027 | D 0.023 | I 0.465 | R 0.119 | G 0.342 | A 0.098

Variants of: B2
Assay: as above
Conditions: Homo sapiens

Abundance fitness of substitutions, site by site:
D36: Q 0.041 | Y -0.374 | H -0.092 | F -0.327 | W -0.299 | E -0.002 | P -0.083 | G 0.039 | R -0.017 | V -0.354 | A -0.034 | T -0.042 | I -0.342 | L -0.383 | S 0.021 | M -0.375 | C -0.126
F42: V -0.134 | W 0.401 | C -0.286 | A 0.053 | M -0.2 | T -0.007 | Y 0.349 | G 0.307 | S 0.25 | E 0.767 | N 0.429 | R 0.337 | P 0.405 | K 0.592 | L -0.29
Q35: K 0.261 | W -0.336 | C 0.079 | T 0.044 | M -0.061 | P -0.136 | I -0.186 | S 0.073 | H 0.012 | D 0.05 | L -0.077 | G 0.056 | V -0.017 | A -0.038 | E -0.075 | N 0.063 | Y -0.166
V30: M -0.019 | R -0.847 | C -0.277 | E -1.18 | A -0.97 | T -0.419 | Q -0.764 | G -0.792 | S -0.757 | Y -1.05 | N -0.79 | H -1.1 | L -0.131 | P -0.635
T34: N 0.075 | W -0.416 | L -0.257 | V -0.119 | I -0.4 | K 0.165 | Y -0.715 | D -0.036 | Q 0.199 | F -0.783 | P -0.222 | G 0.03 | R 0.137 | E 0.314
H29: E -0.551 | F -0.201 | P -0.796 | G -0.803 | L -0.264 | N -0.173 | C -0.382 | Y -0.014 | R -0.153 | S -0.344 | M -0.209 | V -0.349 | Q -0.11 | I -0.469 | T -0.419
L43: F 0.149 | E 0.582 | W 0.076 | D 0.587 | R 0.507 | M 0.184 | H 0.514 | T 0.584 | C 0.187 | A 0.286 | S 0.338 | I 0.098 | P 0.302 | V 0.209 | Y 0.126 | G 0.342 | K 0.554 | Q 0.645
E28: H -0.723 | I -0.16 | V -0.311 | A -0.434 | D 0.373 | L -0.31 | T -0.084 | N -0.21 | G -0.112 | K -0.269 | Q -0.181 | Y -0.404 | M -0.8 | C -0.2 | R -0.013 | W 0.08
S32: Y -0.182 | A -0.015 | G 0.115 | E 0.105 | W -0.622 | Q 0.032 | K 0.05 | C -0.124 | T 0.203 | I -0.135 | L -0.224 | M -0.083 | R -0.176 | P -0.419 | N 0.025 | H -0.138 | V -0.191
E37: F -1.02 | M -0.4 | H -0.668 | N -0.717 | A -0.283 | S -0.533 | K -0.546 | G -0.722 | Q -0.303 | V -1.01 | T -0.738 | L -1.08 | R -0.63 | P -0.846 | D 0.021
R33: M -0.585 | T -0.464 | G -0.569 | C -0.944 | A -0.285 | W -0.404 | N -0.884 | L -0.832 | Y -0.744 | E -0.319 | Q -1.01 | S -0.678 | I -0.885 | K 0.037 | H -0.251 | V -0.387 | P -0.653
V26: W -0.494 | Y -0.57 | T 0.029 | R -0.424 | Q -0.533
L40: I -0.138 | N 0.135 | T 0.206 | W 0.326 | P -0.299 | A 0.28 | E 0.122 | R 0.157 | S 0.266 | H 0.201 | D 0.319 | M 0.057 | G 0.049 | K 0.171 | Q 0.204 | Y 0.213 | C 0.108 | F -0.074
H41: W -0.142 | E -0.178 | R -0.019 | S -0.357 | K 0.223 | C -0.089 | N 0.097 | F -0.189 | A 0.064 | Y 0.184 | I -0.537 | L -0.247 | G -0.407 | T -0.161 | M -0.187 | Q -0.21
S27: C -0.119 | F -0.516 | E 0.105 | G 0.056 | H 0.063 | L -0.375 | A 0.168 | D -0.558 | N -0.204 | P -0.319 | I -0.149 | Q 0.246 | Y -0.305 | V 0.039 | R 0.01 | K 0.145 | M -0.248 | W -0.56
G31: D -0.205 | A -0.03 | P -0.11 | F -0.375 | L -0.528 | I -0.174 | W -0.543 | E 0.032 | K 0.073 | C -0.009 | Q -0.518 | M -0.059 | V -0.028 | N -0.259 | Y -0.487
I39: M 0.217 | G -0.004 | R 0.456 | A 0.178 | Q 0.238 | K 0.564 | W -0.333 | Y 0.117 | L 0.142 | F -0.043 | S 0.32 | H 0.456 | N 0.35 | E 0.513 | P -0.378
C38: W -0.79 | S -0.624 | H -0.774 | V -0.348 | I -0.361 | P -0.73 | Y -0.903 | G -0.778 | A -0.572 | T -0.4 | M -1.09 | D -0.296 | R -0.367 | L -0.5 | Q -0.514

Reference: the Human Domainome abundance scans (Beltran et al. 2025)
